In patent publication US20250114463A1, “LIVER-TARGETED DRUG AND USE THEREOF” (HANMI PHARM. CO., LTD., priority 2021, published 2025):
Bridges are numbered along the chain shown (N, C = ends). Where no end group is shown, it is not given here. [ ]: non-standard residue; d: D form. The star is where a group is joined. Acetyl(2-(4-imidazolyl)) = O=C(Cc1c[nH]cn1)*; Aib = CC(C)(N)C(=O)O

Legend:
Test in all cases: cell-based or functional assay
human GCG receptor = human GCG receptor (human, UniProt P47871 26-477)
human GIP receptor = target: T1, human GIP receptor (human, UniProt P48546 22-466)
T1 sequence (looked up): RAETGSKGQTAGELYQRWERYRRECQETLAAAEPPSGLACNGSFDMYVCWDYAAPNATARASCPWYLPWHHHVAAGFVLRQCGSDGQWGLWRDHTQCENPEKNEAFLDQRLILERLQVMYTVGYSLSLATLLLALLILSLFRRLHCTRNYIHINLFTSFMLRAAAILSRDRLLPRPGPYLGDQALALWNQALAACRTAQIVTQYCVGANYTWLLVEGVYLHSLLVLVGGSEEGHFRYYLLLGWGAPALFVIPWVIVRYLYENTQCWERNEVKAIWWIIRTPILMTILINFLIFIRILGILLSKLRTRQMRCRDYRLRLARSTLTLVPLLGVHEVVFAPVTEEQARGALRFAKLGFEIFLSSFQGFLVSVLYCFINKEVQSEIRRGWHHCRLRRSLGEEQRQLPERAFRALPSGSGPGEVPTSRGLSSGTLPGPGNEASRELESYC

human GLP-1 receptor = human GLP-1 receptor (human, UniProt P43220 24-463)

human GCG receptor, sequence (P47871 26-477): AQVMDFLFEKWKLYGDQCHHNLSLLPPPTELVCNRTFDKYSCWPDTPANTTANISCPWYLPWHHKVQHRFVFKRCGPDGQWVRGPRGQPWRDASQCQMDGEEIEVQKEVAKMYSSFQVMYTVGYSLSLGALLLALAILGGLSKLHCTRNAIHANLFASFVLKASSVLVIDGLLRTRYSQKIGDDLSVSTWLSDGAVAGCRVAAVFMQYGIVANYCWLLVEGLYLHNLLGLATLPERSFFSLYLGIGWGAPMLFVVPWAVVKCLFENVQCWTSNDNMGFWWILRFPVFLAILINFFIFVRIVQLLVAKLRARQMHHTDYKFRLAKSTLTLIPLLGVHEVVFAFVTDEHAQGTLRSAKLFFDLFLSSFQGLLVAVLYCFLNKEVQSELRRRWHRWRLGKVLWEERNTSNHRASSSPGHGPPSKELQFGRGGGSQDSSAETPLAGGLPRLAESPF

Binder | in vitro Activity Compared to Native Peptide (%), vs Glucagon (human GCG receptor) [%] | in vitro Activity Compared to Native Peptide (%), vs GIP (human GIP receptor) [%] | in vitro Activity Compared to Native Peptide (%), vs GLP-1 (human GLP-1 receptor) [%]
[Acetyl(2-(4-imidazolyl))]GQGTFTSDLSKQMDSEAQQLFIEWLKNGGPSSGAPPPSHG-NH2 [triple agonist of SEQ ID NO: 16] | < 0.1 | < 0.1 | 2.1
[Acetyl(2-(4-imidazolyl))]GEGTFISDLSKYMDEQAVQLFVEWLMAGGPSSGAPPPSHG-NH2 [triple agonist of SEQ ID NO: 12] | < 0.1 | < 0.1 | 0.4
[Acetyl(2-(4-imidazolyl))]GQGTFTSDLSIQYDSEHQRDFIEWLKDTGPSSGAPPPSHG-NH2 [triple agonist of SEQ ID NO: 19] | < 0.1 | < 0.1 | < 0.1
HXQGTFTSDCSKYLDERAAQDFVQWLLDGGPSSGAPPPS (HELM PEPTIDE1{H.[Aib].Q.G.T.F.T.S.D.C.S.K.Y.L.D.E.R.A.A.Q.D.F.V.Q.W.L.L.D.G.G.P.S.S.G.A.P.P.P.S.[am]}$$$$V2.0; N-terminus assumed; SMILES CC(C)C[C@H](NC(=O)[C@H](CC(C)C)NC(=O)[C@H](Cc1c[nH]c2ccccc12)NC(=O)[C@H](CCC(N)=O)NC(=O)[C@@H](NC(=O)[C@H](Cc1ccccc1)NC(=O)[C@H](CC(=O)O)NC(=O)[C@H](CCC(N)=O)NC(=O)[C@H](C)NC(=O)[C@H](C)NC(=O)[C@H](CCCNC(=N)N)NC(=O)[C@H](CCC(=O)O)NC(=O)[C@H](CC(=O)O)NC(=O)[C@H](CC(C)C)NC(=O)[C@H](Cc1ccc(O)cc1)NC(=O)[C@H](CCCCN)NC(=O)[C@H](CO)NC(=O)[C@H](CS)NC(=O)[C@H](CC(=O)O)NC(=O)[C@H](CO)NC(=O)[C@@H](NC(=O)[C@H](Cc1ccccc1)NC(=O)[C@@H](NC(=O)CNC(=O)[C@H](CCC(N)=O)NC(=O)C(C)(C)NC(=O)[C@@H](N)Cc1c[nH]cn1)[C@@H](C)O)[C@@H](C)O)C(C)C)C(=O)N[C@@H](CC(=O)O)C(=O)NCC(=O)NCC(=O)N1CCC[C@H]1C(=O)N[C@@H](CO)C(=O)N[C@@H](CO)C(=O)NCC(=O)N[C@@H](C)C(=O)N1CCC[C@H]1C(=O)N1CCC[C@H]1C(=O)N1CCC[C@H]1C(=O)N[C@@H](CO)C(N)=O) [triple agonist of SEQ ID NO: 25] | 0.1 | < 0.1 | 82.6
[Acetyl(2-(4-imidazolyl))]GEGTFTSDLSKYLDSRRQQLFVQWLKAGGPSSGAPPPSHG-NH2 [triple agonist of SEQ ID NO: 11] | < 0.1 | < 0.1 | 1.4
H[Aib]QGTFTSDVSSYLLGQAAKQFIAWLVKGGGPSSGAPPPSC-NH2 [triple agonist of SEQ ID NO: 3] | < 0.1 | < 0.1 | 1.8
[Acetyl(2-(4-imidazolyl))]GQGTFTSDLSKQMDSERAREFIEWLKNTGPSSGAPPPSHG-NH2 [triple agonist of SEQ ID NO: 18] | < 0.1 | < 0.1 | < 0.1
[Acetyl(2-(4-imidazolyl))]GEGTFISDYSIQLDEIAVQDFVEWLLAQKPSSGAPPPSHG-NH2 [triple agonist of SEQ ID NO: 13] | < 0.1 | < 0.1 | < 0.1
[Acetyl(2-(4-imidazolyl))]GQGTFTSDLSKQMDEERAREFIEWLLAQKPSSGAPPPSHG-NH2 [triple agonist of SEQ ID NO: 17] | < 0.1 | < 0.1 | 0.2
Y[Aib]QGTFTSDYSKYLDECRAKEFVQWLLDHHPSSGQPPPS-NH2 (bridge 16-20; also: ring type not given here) [triple agonist of SEQ ID NO: 21] | 267 | 22.7 | 17.8
[Acetyl(2-(4-imidazolyl))]GQGTFTSDLSIQYEEEAQQDFVEWLKDTGPSSGAPPPSHG-NH2 [triple agonist of SEQ ID NO: 20] | < 0.1 | < 0.1 | < 0.1
Y[Aib]QGTFTSDYSKCLDEKRAKEFVQWLLDHHPSSGQPPPS-NH2 (bridge 16-20) [triple agonist of SEQ ID NO: 22] | 140 | 59.7 | 20.1
[Acetyl(2-(4-imidazolyl))]GQGTFTSDYSIQLDEIAVRDFVEWLKNGGPSSGAPPPSHG-NH2 [triple agonist of SEQ ID NO: 14] | < 0.1 | < 0.1 | 28
Y[Aib]QGTFTSDYSKALDEKAAKDFVNWLLDQHPSSGQPPPSC (bridge 16-20; not fully specified (C-terminus); also: ring type not given here) [triple agonist of SEQ ID NO: 102] | 29.5 | 58 | 23.3
Y[Aib]QGTFTSDYSKYLDECRAKEFVQWLKNGGPSSGAPPPS (bridge 16-20; not fully specified (C-terminus)) [triple agonist of SEQ ID NO: 24] | 9.3 | < 0.1 | 41.2
Y[Aib]QGTFTSDYSKYLDECRAKEFVQWLLAQKGKKNDWKHNIT (bridge 16-20; not fully specified (C-terminus)) [triple agonist of SEQ ID NO: 23] | 9.3 | < 0.1 | 4.01
HXQGTFTSDVSSYLDGQAQKEFIAWLVKGC (HELM PEPTIDE1{H.[Aib].Q.G.T.F.T.S.D.V.S.S.Y.L.D.G.Q.A.Q.K.E.F.I.A.W.L.V.K.G.C.[am]}$$$$V2.0; N-terminus assumed; SMILES CC[C@H](C)[C@H](NC(=O)[C@H](Cc1ccccc1)NC(=O)[C@H](CCC(=O)O)NC(=O)[C@H](CCCCN)NC(=O)[C@H](CCC(N)=O)NC(=O)[C@H](C)NC(=O)[C@H](CCC(N)=O)NC(=O)CNC(=O)[C@H](CC(=O)O)NC(=O)[C@H](CC(C)C)NC(=O)[C@H](Cc1ccc(O)cc1)NC(=O)[C@H](CO)NC(=O)[C@H](CO)NC(=O)[C@@H](NC(=O)[C@H](CC(=O)O)NC(=O)[C@H](CO)NC(=O)[C@@H](NC(=O)[C@H](Cc1ccccc1)NC(=O)[C@@H](NC(=O)CNC(=O)[C@H](CCC(N)=O)NC(=O)C(C)(C)NC(=O)[C@@H](N)Cc1c[nH]cn1)[C@@H](C)O)[C@@H](C)O)C(C)C)C(=O)N[C@@H](C)C(=O)N[C@@H](Cc1c[nH]c2ccccc12)C(=O)N[C@@H](CC(C)C)C(=O)N[C@H](C(=O)N[C@@H](CCCCN)C(=O)NCC(=O)N[C@@H](CS)C(N)=O)C(C)C) [triple agonist of SEQ ID NO: 2] | < 0.1 | < 0.1 | 5.9
